Results from patent US20110318789A1 (CAMBRIDGE ENTERPRISE, published 2011).

Assays:
[1] = target: Mt-Lig expressed in yeast as amino-terminal Myc epitope-NLS fusion protein (pNLS16) (Mycobacterium tuberculosis) (UniProt P9WNV3); assay: cell-based or functional assay
[2] = target: Mt-Lig (Mycobacterium tuberculosis ATP-dependent ligase, ORF Rv0938), recombinant histidine-tagged (Mycobacterium tuberculosis, UniProt P9WNV3 1-759); assay: cell-based or functional assay
Mt-Lig (Mycobacterium tuberculosis ATP-dependent ligase, ORF Rv0938), recombinant histidine-tagged, sequence (P9WNV3 whole entry): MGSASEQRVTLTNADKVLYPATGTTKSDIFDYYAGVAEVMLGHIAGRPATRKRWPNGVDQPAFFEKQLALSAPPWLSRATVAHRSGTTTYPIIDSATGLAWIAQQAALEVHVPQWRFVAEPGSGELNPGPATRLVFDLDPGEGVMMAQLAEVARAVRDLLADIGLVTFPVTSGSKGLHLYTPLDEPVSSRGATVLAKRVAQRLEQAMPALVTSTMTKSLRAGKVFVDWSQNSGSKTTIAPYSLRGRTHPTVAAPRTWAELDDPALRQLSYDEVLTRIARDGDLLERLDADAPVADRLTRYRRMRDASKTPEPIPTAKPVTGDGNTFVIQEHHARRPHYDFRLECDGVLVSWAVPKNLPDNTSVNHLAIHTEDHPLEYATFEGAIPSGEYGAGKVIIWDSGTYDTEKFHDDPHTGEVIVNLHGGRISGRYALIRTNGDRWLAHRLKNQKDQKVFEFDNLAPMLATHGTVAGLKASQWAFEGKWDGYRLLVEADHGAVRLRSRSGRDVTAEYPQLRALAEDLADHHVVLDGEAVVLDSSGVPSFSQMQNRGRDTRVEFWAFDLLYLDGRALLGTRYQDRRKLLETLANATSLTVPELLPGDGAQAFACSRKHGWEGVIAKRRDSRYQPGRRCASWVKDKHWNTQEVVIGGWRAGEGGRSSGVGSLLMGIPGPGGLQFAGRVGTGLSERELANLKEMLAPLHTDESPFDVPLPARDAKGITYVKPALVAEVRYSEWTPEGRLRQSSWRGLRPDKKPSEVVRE

Mt-Lig expressed in yeast as amino-terminal Myc epitope-NLS fusion protein (pNLS16) (Mycobacterium tuberculosis), sequence (P9WNV3 whole entry, the tested form may be a part): as the sequence (P9WNV3 whole entry) above

For “Mt-Ku expressed in yeast as amino-terminal Myc epitope-NLS fusion protein (pNLS15) (from UniProt P9WKD8 1-273)”, which NHEJ frequency in yku70 mutant yeast (suicide deletion assay) (% of the wild-type yeast level) [1] is on record?
Its NHEJ frequency in yku70 mutant yeast (suicide deletion assay) (% of the wild-type yeast level) is 50.

B1: Mt-Ku (Mycobacterium tuberculosis Ku-like protein, ORF Rv0937c), recombinant histidine-tagged (other)
chain: MRAIWTGSIAFGLVNVPVKVYSATADHDIRFHQVHAKDNGRIRYKRVCEACGEVVDYRDLARAYESGDGQMVAITDDDIASLPEERSREIEVLEFVPAADVDPMMFDRSYFLEPDSKSSKSYVLLAKTLAETDRMAIVHFTLRNKTRLAALRVKDFGKREVMMVHTLLWPDEIRDPDFPVLDQKVEIKPAELKMAGQVVDSMADDFNPDRYHDTYQEQLQELIDTKLEGGQAFTAEDQPRLLDEPEDVSDLLAKLEASVKARSKANSNVPTPP
Which results are given for B1?
DNA ligation activity of Mt-Lig on dsDNA fragments upon addition of Mt-Ku [2]: > 30 fold; activity of Mt-Lig in an in vitro plasmid repair assay [2]: 20 fold
